# ± gives the uncertainty stated by the source.
# Test: self-splicing fitness, log relative to wild type (ln ratio); higher = more splicing; Tetrahymena group I intron in knt gene, E. coli kanamycin selection, DiMSum; sequences stand for … in CUCUCU…GGAGGGAAAAGUUAUCAGGCAUGCACCUGGUAGCUAGUCUUUAAACCAAUAGAUUGCAUCGGUUUAAAAGGCAAGACCGUCAAAUUGCGGGAAAGGGGUCAACAGCCGUUCAGUACCAAGUCUCAGGGGAAACUUUGAGAUGGCCUUGCAAAGGGUAUGGUAAUAAGCUGACGGACAUGGUCCUAACCACGCAGCCAAGUCCUAAGUCAACAGAUCUUCUGUUGAUAUGGAUGCAGUUCACAGACUAAAUGUCGGUCGGGGAAGAUGUAUUCUUCUCAUAAGAUAUAGUCGGACCUCUCCUUAAUGGGAGCUAGCGGAUGAAGUGAUGCAACACUGGAGCCGCUGGGAACUAAUUUGUAUGCGAAAGUAUAUUGAUUAGUUUUGGAGUACUCGUGGUCG
# In short: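 The eight P1ex-region nucleotides of an intron in the knt kanamycin-resistance gene on pET-22b(+) were all randomised and the library put into E. coli BL21(DE3). Six replicate transformations were grown overnight at 37°C or 30°C on LB agar with or without 25 μg/mL kanamycin, together with 100 μg/mL carbenicillin, 50 μM IPTG and 0.2% rhamnose. Colonies were pooled and amplicon-sequenced on an Illumina HiSeq 2500. Fitness from DiMSum is the error-weighted combination of wild-type-normalised replicate fold changes, kanamycin over none.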
Sequence,self-splicing fitness (ln) (30 °C),self-splicing fitness (ln) (37 °C)
AUAAAGCAAUAUUACGAUCU,0.387 ± 0.11,0.308 ± 0.097
UUUUAGCAAUAUUACGAGGU,-2.89 ± 0.43,–
CCCAAGCAAUAUUACGCCUG,-3.12 ± 0.19,-2.88 ± 0.27
UAUCAGCAAUAUUACGUGAA,-0.844 ± 0.083,0.371 ± 0.11
UAGGAGCAAUAUUACGAAUU,-2.72 ± 0.3,-2.22 ± 0.48
CAAAAGCAAUAUUACGGCCU,-1.44 ± 0.14,-1.25 ± 0.12
ACAAAGCAAUAUUACGAAUC,-2.69 ± 0.19,-1.66 ± 0.17
AGAUAGCAAUAUUACGAUAU,-1.02 ± 0.11,-0.119 ± 0.14
ACUCAGCAAUAUUACGAUCA,-0.712 ± 0.13,-0.359 ± 0.12
AAGGAGCAAUAUUACGGCAA,-2.54 ± 0.39,–
AAACAGCAAUAUUACGGCUG,-3.47 ± 0.25,-2.07 ± 0.23
AAUUAGCAAUAUUACGAUCU,0.226 ± 0.09,0.704 ± 0.11
CUCAAGCAAUAUUACGGAAC,-4.26 ± 0.42,-2.46 ± 0.3
CCGCAGCAAUAUUACGAUAA,-2 ± 0.19,-1.2 ± 0.24
UGAUAGCAAUAUUACGAGUU,-3.82 ± 0.24,-2.73 ± 0.21
CUCCAGCAAUAUUACGAGGU,-4.41 ± 0.31,-3.07 ± 0.24
UUCAAGCAAUAUUACGGGGC,-3.6 ± 0.27,-2.8 ± 0.33
AGGAAGCAAUAUUACGUAGC,–,-1.62 ± 0.28
ACUCAGCAAUAUUACGAGCA,-0.632 ± 0.068,0.302 ± 0.092
GUGGAGCAAUAUUACGCUUG,-1.21 ± 0.16,-1.25 ± 0.21
CUUAAGCAAUAUUACGCUUG,-4.19 ± 0.39,-2.78 ± 0.31
AAAGAGCAAUAUUACGGUAU,-3.02 ± 0.17,-2.28 ± 0.15
GAGAAGCAAUAUUACGAGAG,-2.86 ± 0.23,-1.91 ± 0.22
ACCAAGCAAUAUUACGGGUU,-4.06 ± 0.14,-3.14 ± 0.17
GAGGAGCAAUAUUACGAUUA,-1.73 ± 0.15,-1.8 ± 0.13

Sequence,self-splicing fitness (ln) (30 °C),self-splicing fitness (ln) (37 °C)
AGAGAGCAAUAUUACGACUC,-1.4 ± 0.12,-0.408 ± 0.15
CACUAGCAAUAUUACGUUUA,-4.15 ± 0.23,-2.68 ± 0.17
ACGGAGCAAUAUUACGAAAG,-3.06 ± 0.31,–
AAUUAGCAAUAUUACGAGAU,-2.7 ± 0.17,-2.16 ± 0.17
UGACAGCAAUAUUACGGAUG,-0.91 ± 0.054,-0.91 ± 0.075
AACUAGCAAUAUUACGCCUG,-1.08 ± 0.12,-1.43 ± 0.13
UGCGAGCAAUAUUACGUAGU,–,-1.9 ± 0.19
AGCUAGCAAUAUUACGUGAC,-3.94 ± 0.18,-1.26 ± 0.13
CCUUAGCAAUAUUACGGAGG,-3.99 ± 0.41,-3.11 ± 0.37
AAACAGCAAUAUUACGUAAU,-1.79 ± 0.051,-0.491 ± 0.064
UGGGAGCAAUAUUACGAUGU,-3.95 ± 0.33,-2.53 ± 0.3
GAGCAGCAAUAUUACGAGUC,-1.91 ± 0.12,-1.92 ± 0.17
GCCCAGCAAUAUUACGUCAA,-2.62 ± 0.1,-1.68 ± 0.097
AUACAGCAAUAUUACGUGAA,-2.19 ± 0.077,-1.08 ± 0.076
AGGGAGCAAUAUUACGCUAA,–,-2.1 ± 0.49
AUGGAGCAAUAUUACGAGGC,-3.37 ± 0.34,-2.44 ± 0.23
ACUAAGCAAUAUUACGGUAG,-4.09 ± 0.2,-3.56 ± 0.2
AAACAGCAAUAUUACGGCGA,-0.923 ± 0.074,-0.737 ± 0.085
UGGUAGCAAUAUUACGGCUA,-1.37 ± 0.2,-0.75 ± 0.19
CCUCAGCAAUAUUACGCAGU,-3.09 ± 0.22,-1.67 ± 0.28
GUUCAGCAAUAUUACGGGAA,-1.16 ± 0.14,-0.278 ± 0.13
AUGGAGCAAUAUUACGCACU,-0.628 ± 0.14,-0.159 ± 0.18
UUUGAGCAAUAUUACGUAUG,-1.73 ± 0.16,-2.59 ± 0.24
AUACAGCAAUAUUACGACCC,-1.1 ± 0.21,-0.179 ± 0.17
